The source of these data is publication PMC7431522.

The target of assay [1] is T1, IL-10 receptor (IL-10R), mouse (mouse (endogenous in BMDMs and splenocytes)) (UniProt Q61727).
T1 sequence: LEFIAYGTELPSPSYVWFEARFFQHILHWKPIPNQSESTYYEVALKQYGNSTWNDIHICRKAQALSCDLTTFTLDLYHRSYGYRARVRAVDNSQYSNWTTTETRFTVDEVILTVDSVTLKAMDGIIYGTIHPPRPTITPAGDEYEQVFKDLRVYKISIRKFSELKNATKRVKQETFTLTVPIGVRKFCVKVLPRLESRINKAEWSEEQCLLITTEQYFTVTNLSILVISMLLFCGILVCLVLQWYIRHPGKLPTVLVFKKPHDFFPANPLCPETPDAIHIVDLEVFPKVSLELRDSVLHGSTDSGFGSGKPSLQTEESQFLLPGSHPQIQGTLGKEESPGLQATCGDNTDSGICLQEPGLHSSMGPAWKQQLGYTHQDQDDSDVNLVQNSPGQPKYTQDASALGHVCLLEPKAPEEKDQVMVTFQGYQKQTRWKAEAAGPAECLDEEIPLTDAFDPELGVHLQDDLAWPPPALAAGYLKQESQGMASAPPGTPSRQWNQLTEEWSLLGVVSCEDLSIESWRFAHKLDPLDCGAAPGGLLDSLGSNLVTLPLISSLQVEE

Assay [2] has as its target T1, IL-10 receptor (IL-10R), mouse (mouse (endogenous in BMDMs and splenocytes)). This is another data set of the same source.
Assay [3] shares this target. This is another data set of the same source.
For assay [4] the target is unchanged. This is another data set of the same source.

In assay [1], “natural mouse IL-10 with RRCHR changed to ARCHA (from UniProt P18893 19-178) (ligand)” came in with an ED50 of biological activity, dose-response, data as AUC (Figure 5B) of 59.3 ng/mL.
In assay [2], “stable mouse IL-10 dimer, 7 amino acid linker (-G3SG3-) (ligand)” displayed an ED50, half-maximal suppression of LPS-induced luciferase in hTNF.LucBAC BMDMs (Figure 2C) of 0.04 ng/mL and a suppression of LPS-induced luciferase in hTNF.LucBAC BMDMs, 10 ng/mL of 60%. Besides, the ED50 of biological activity, dose-response, data as AUC (Figure 5D) in assay [1] was 0.36 ng/mL. In assay [3], the ED50, suppression of LPS-induced luciferase in BMDMs (Figure 2H) is 0.45 ng/mL.
“natural mouse IL-10 with RRCHR changed to AACHR (from UniProt P18893 19-178) (ligand)” displayed an ED50 of biological activity, dose-response, data as AUC (Figure 5B) in assay [1] of 0.96 ng/mL.
Molecule “stable mouse IL-10 dimer, 13 amino acid linker (-G3SG4-SG4-) (ligand)” displayed an ED50, suppression of LPS-induced luciferase in BMDMs (Figure 2H) in assay [3] of 0.38 ng/mL.
The molecule “natural mouse IL-10 with RRCHR changed to RACHR (from UniProt P18893 19-178) (ligand)” came in with an ED50 of biological activity, dose-response, data as AUC (Figure 5B) in assay [1] of 0.28 ng/mL.
For “stable mouse IL-10 dimer, 9 amino acid linker (-G3SG4S-) (ligand)”, in assay [3], the ED50, suppression of LPS-induced luciferase in BMDMs (Figure 2H) came out at 0.4 ng/mL.
For “natural human IL-10 (non-covalently linked) (from UniProt P22301 19-178) (ligand)”, the ED50, suppression of LPS-induced luciferase in mouse BMDMs (Figure 8A) in assay [4] was 0.87 ng/mL.

B1: natural mouse IL-10 (non-covalently linked) (ligand)
chain: SRGQYSREDNNCTHFPVGQSHMLLELRTAFSQVKTFFQTKDQLDNILLTDSLMQDFKGYLGCQALSEMIQFYLVEVMPQAEKHGPEIKEHLNSLGEKLKTLRMRLRRCHRFLPCENKSKAVEQVKSDFNKLQDQGVYKAMNEFDIFINCIEAYMMIKMKS
In assay [2], B1 had an ED50, half-maximal suppression of LPS-induced luciferase in hTNF.LucBAC BMDMs (Figure 2C) of 0.17 ng/mL and a suppression of LPS-induced luciferase in hTNF.LucBAC BMDMs, 10 ng/mL of 60%. The same molecule displayed an ED50 of biological activity, dose-response, data as AUC (Figure 5B) in assay [1] of 0.1 ng/mL. In assay [3], this molecule displayed an ED50, suppression of LPS-induced luciferase in BMDMs (Figure 2H) of 1.5 ng/mL.

B2: commercial mouse IL-10 (ligand)
chain: B1 chain
B2 returned a suppression of LPS-induced luciferase in hTNF.LucBAC BMDMs, 10 ng/mL in assay [2] of 60%.
